The sequences below were run on Saccharomyces cerevisiae PS128 hsf1 delta, HSF1(1-493) fusion (assay: growth estimate (transactivation domain function in HSF1 fusion, heat-shock survival) (a.u. (slope of normalised read count over time)); higher = stronger growth at 37°C, i.e. more transactivation activity). Conditions: library: design library.
Method in brief: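 Designed transactivation-domain oligos were fused to truncated yeast HSF1 (amino acids 1–493) and expressed in an hsf1-deleted yeast strain. Cells were replica-plated onto –trp 5-FOA plates and incubated at 30°C or 37°C for 0, 2, 4, 6 and 8 days. Inserts were PCR-amplified and Illumina MiSeq-sequenced as six barcoded replicates from one experiment. Growth estimate is the slope of a robust linear fit over time of read counts normalised to sample totals and starting count.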
MLSSHGFSVDTSAKLDLFSP showed a growth estimate of -0.237.
MLSSHGFSVDTSALADLFSP showed a growth estimate of -0.191.
MLSSHGFSVDTSALGDLFSP showed a growth estimate of -0.213.
In the case of MLSSHGFSVDTSALKDLFSP, the growth estimate is reported as under -0.25.
With MLSSHGFSVDTSALLALFSP the growth estimate was -0.21.
With MLSSHGFSVDTSALLDGFSP the growth estimate was -0.227.
With MLSSHGFSVDTSALLDKFSP the growth estimate was -0.227.
Work on MLSSHGFSVDTSALLDLASP yielded a growth estimate of -0.145.
In the case of MLSSHGFSVDTSALLDLFAP, the growth estimate is reported as -0.0921.
For MLSSHGFSVDTSALLDLFGP, the growth estimate was -0.17.
Work on MLSSHGFSVDTSALLDLFKP yielded a growth estimate of -0.179.
MLSSHGFSVDTSALLDLFPP was tested, and the growth estimate was -0.106.
Work on MLSSHGFSVDTSALLDLFRP yielded a growth estimate of -0.22.
In the case of MLSSHGFSVDTSALLDLFSA, the growth estimate is reported as -0.127.
In the case of MLSSHGFSVDTSALLDLFSG, the growth estimate is reported as -0.181.
Work on MLSSHGFSVDTSALLDLFSK yielded a growth estimate of -0.245.
Work on MLSSHGFSVDTSALLDLFSP yielded a growth estimate of 0.0347.
MLSSHGFSVDTSALLDLGSP showed a growth estimate of -0.228.
With MLSSHGFSVDTSALLDLKSP the growth estimate was -0.096.
With MLSSHGFSVDTSALLDLPSP the growth estimate was under -0.25.
MLSSHGFSVDTSALLDLRSP showed a growth estimate of under -0.25.
MLSSHGFSVDTSALLDPFSP was tested, and the growth estimate was under -0.25.
Work on MLSSHGFSVDTSALLDRFSP yielded a growth estimate of -0.229.
In the case of MLSSHGFSVDTSALLGLFSP, the growth estimate is reported as -0.207.
MLSSHGFSVDTSALLKLFSP was tested, and the growth estimate was -0.216.
MLSSHGFSVDTSALLPLFSP gave a growth estimate of -0.158.
Work on MLSSHGFSVDTSALLRLFSP yielded a growth estimate of -0.193.
With MLSSHGFSVDTSALPDLFSP the growth estimate was -0.23.
MLSSHGFSVDTSALRDLFSP was tested, and the growth estimate was -0.196.
MLSSHGFSVDTSAPLDLFSP gave a growth estimate of -0.15.
MLSSHGFSVDTSGLLDLFSP gave a growth estimate of 0.0909.
In the case of MLSSHGFSVDTSKLLDLFSP, the growth estimate is reported as -0.143.
Work on MLSSHGFSVDTSPLLDLFSP yielded a growth estimate of -0.191.
MLSSHGFSVDTSRLLDLFSP was tested, and the growth estimate was -0.171.
With MLSSHGFSVGTSALLDLFSP the growth estimate was -0.248.
MLSSHGFSVKTSALLDLFSP showed a growth estimate of -0.0119.
MLSSHGFSVPTSALLDLFSP gave a growth estimate of -0.204.
For MLSSHGGSVDTSALLDLFSP, the growth estimate was -0.112.
For MLSSHGPSVDTSALLDLFSP, the growth estimate was -0.216.
With MLSSHGRSVDTSALLDLFSP the growth estimate was -0.248.
Work on MLSSHPFSVDTSALLDLFSP yielded a growth estimate of -0.195.
Sequence MLSSHRFSVDTSALLDLFSP has a growth estimate of -0.227.
With MLSSKGFSVDTSALLDLFSP the growth estimate was -0.115.
MLSSPGFSVDTSALLDLFSP gave a growth estimate of 0.169.
With MPSSHGFSVDTSALLDLFSP the growth estimate was 0.171.
MRSSHGFSVDTSALLDLFSP showed a growth estimate of -0.241.
With PADDIWEELLSEDL the growth estimate was 2.99.
Sequence PAFPGIELQELQELQALLQQ has a growth estimate of -0.0264.
With PAPDTQDDFLKWWRSEEAQ the growth estimate was 0.0134.
In the case of PDDDEFSLWDSML, the growth estimate is reported as 1.67.
For PDLYSILWSDVY, the growth estimate was -0.202.
PEAPGIELQELQELQALLQQ showed a growth estimate of under -0.25.
In the case of PEFAGIELQELQELQALLQQ, the growth estimate is reported as -0.244.
PEFGGIELQELQELQALLQQ was tested, and the growth estimate was under -0.25.
For PEFKGIELQELQELQALLQQ, the growth estimate was under -0.25.
With PEFPAIELQELQELQALLQQ the growth estimate was -0.181.
For PEFPGIALQELQELQALLQQ, the growth estimate was -0.223.
PEFPGIEAQELQELQALLQQ showed a growth estimate of -0.167.
With PEFPGIEGQELQELQALLQQ the growth estimate was under -0.25.
Sequence PEFPGIEKQELQELQALLQQ has a growth estimate of 0.269.
Sequence PEFPGIELAELQELQALLQQ has a growth estimate of -0.181.
With PEFPGIELKELQELQALLQQ the growth estimate was -0.217.
Work on PEFPGIELQALQELQALLQQ yielded a growth estimate of 0.169.
Work on PEFPGIELQELAELQALLQQ yielded a growth estimate of 0.131.
For PEFPGIELQELGELQALLQQ, the growth estimate was -0.0807.
With PEFPGIELQELKELQALLQQ the growth estimate was under -0.25.
PEFPGIELQELPELQALLQQ was tested, and the growth estimate was -0.22.
For PEFPGIELQELQALQALLQQ, the growth estimate was under -0.25.
With PEFPGIELQELQEKQALLQQ the growth estimate was under -0.25.
PEFPGIELQELQELAALLQQ showed a growth estimate of 0.178.
Sequence PEFPGIELQELQELGALLQQ has a growth estimate of -0.221.
Work on PEFPGIELQELQELKALLQQ yielded a growth estimate of -0.22.
PEFPGIELQELQELPALLQQ was tested, and the growth estimate was under -0.25.
Sequence PEFPGIELQELQELQAALQQ has a growth estimate of -0.23.
Sequence PEFPGIELQELQELQALKQQ has a growth estimate of -0.232.
PEFPGIELQELQELQALLAQ gave a growth estimate of under -0.25.
With PEFPGIELQELQELQALLGQ the growth estimate was -0.226.
Sequence PEFPGIELQELQELQALLKQ has a growth estimate of 0.0452.
Sequence PEFPGIELQELQELQALLQA has a growth estimate of -0.246.
With PEFPGIELQELQELQALLQG the growth estimate was -0.0522.
PEFPGIELQELQELQALLQK gave a growth estimate of -0.125.
PEFPGIELQELQELQALLQP gave a growth estimate of -0.215.
With PEFPGIELQELQELQALLQQ the growth estimate was -0.0979.
For PEFPGIELQELQELQALLRQ, the growth estimate was -0.245.
With PEFPGIELQELQELQALPQQ the growth estimate was under -0.25.
Work on PEFPGIELQELQELQALRQQ yielded a growth estimate of -0.168.
PEFPGIELQELQELQAPLQQ showed a growth estimate of under -0.25.
Work on PEFPGIELQELQELQGLLQQ yielded a growth estimate of under -0.25.
PEFPGIELQELQELQKLLQQ gave a growth estimate of under -0.25.
PEFPGIELQELQELQRLLQQ showed a growth estimate of -0.177.
PEFPGIELQELQELRALLQQ showed a growth estimate of under -0.25.
PEFPGIELQELQERQALLQQ was tested, and the growth estimate was under -0.25.
In the case of PEFPGIELQELQGLQALLQQ, the growth estimate is reported as under -0.25.
In the case of PEFPGIELQELQRLQALLQQ, the growth estimate is reported as under -0.25.
PEFPGIELQERQELQALLQQ was tested, and the growth estimate was -0.248.
PEFPGIELQPLQELQALLQQ gave a growth estimate of -0.243.
Work on PEFPGIELQRLQELQALLQQ yielded a growth estimate of -0.107.
PEFPGIELRELQELQALLQQ gave a growth estimate of 0.0112.
PEFPGIEPQELQELQALLQQ gave a growth estimate of 0.114.
PEFPGIKLQELQELQALLQQ gave a growth estimate of -0.02.
Work on PEFPGIPLQELQELQALLQQ yielded a growth estimate of -0.204.
Work on PEFPGIRLQELQELQALLQQ yielded a growth estimate of -0.249.
PEFPGKELQELQELQALLQQ showed a growth estimate of under -0.25.
In the case of PEFPGRELQELQELQALLQQ, the growth estimate is reported as under -0.25.
With PEFPKIELQELQELQALLQQ the growth estimate was under -0.25.
Work on PEFPPIELQELQELQALLQQ yielded a growth estimate of -0.0915.
PEFRGIELQELQELQALLQQ showed a growth estimate of -0.124.
With PEGPGIELQELQELQALLQQ the growth estimate was under -0.25.
With PEKPGIELQELQELQALLQQ the growth estimate was -0.204.
Sequence PELSWIIELLEKDG has a growth estimate of -0.201.
In the case of PEPPGIELQELQELQALLQQ, the growth estimate is reported as under -0.25.
In the case of PFADTQDDFLKWWRSEEAQ, the growth estimate is reported as 0.444.
For PFDLDMLGDFDLDMLG, the growth estimate was 4.25.
Work on PFDYDFLFGNDFA yielded a growth estimate of 2.14.
PFGDTQDDFLKWWRSEEAQ showed a growth estimate of 0.304.
With PFNDLLDLDFILSN the growth estimate was 0.542.
Work on PFPATQDDFLKWWRSEEAQ yielded a growth estimate of under -0.25.
PFPDAQDDFLKWWRSEEAQ gave a growth estimate of -0.158.
Work on PFPDPQDDFLKWWRSEEAQ yielded a growth estimate of -0.0255.
Work on PFPDRQDDFLKWWRSEEAQ yielded a growth estimate of -0.241.
Sequence PFPDTADDFLKWWRSEEAQ has a growth estimate of 0.6.
PFPDTGDDFLKWWRSEEAQ was tested, and the growth estimate was -0.0916.
With PFPDTKDDFLKWWRSEEAQ the growth estimate was under -0.25.
In the case of PFPDTPDDFLKWWRSEEAQ, the growth estimate is reported as 0.819.
For PFPDTQADFLKWWRSEEAQ, the growth estimate was under -0.25.
Work on PFPDTQDAFLKWWRSEEAQ yielded a growth estimate of 0.5.
Sequence PFPDTQDDFGKWWRSEEAQ has a growth estimate of under -0.25.
In the case of PFPDTQDDFLAWWRSEEAQ, the growth estimate is reported as 2.37.
Work on PFPDTQDDFLKAWRSEEAQ yielded a growth estimate of under -0.25.
PFPDTQDDFLKGWRSEEAQ gave a growth estimate of -0.242.
Work on PFPDTQDDFLKKWRSEEAQ yielded a growth estimate of -0.167.
Sequence PFPDTQDDFLKPWRSEEAQ has a growth estimate of under -0.25.
With PFPDTQDDFLKWARSEEAQ the growth estimate was 0.0578.
In the case of PFPDTQDDFLKWPRSEEAQ, the growth estimate is reported as under -0.25.
PFPDTQDDFLKWRRSEEAQ gave a growth estimate of -0.221.
With PFPDTQDDFLKWWASEEAQ the growth estimate was 4.59.
Sequence PFPDTQDDFLKWWGSEEAQ has a growth estimate of 1.82.
In the case of PFPDTQDDFLKWWKSEEAQ, the growth estimate is reported as -0.186.
In the case of PFPDTQDDFLKWWPSEEAQ, the growth estimate is reported as 3.12.
PFPDTQDDFLKWWRGEEAQ was tested, and the growth estimate was 0.0794.
PFPDTQDDFLKWWRKEEAQ showed a growth estimate of -0.247.
PFPDTQDDFLKWWRSEAAQ was tested, and the growth estimate was -0.154.
Sequence PFPDTQDDFLKWWRSEEAA has a growth estimate of -0.236.
PFPDTQDDFLKWWRSEEAG was tested, and the growth estimate was 0.0636.
PFPDTQDDFLKWWRSEEAK was tested, and the growth estimate was -0.25.
PFPDTQDDFLKWWRSEEAP was tested, and the growth estimate was 0.0281.
PFPDTQDDFLKWWRSEEAQ was tested, and the growth estimate was -0.149.
PFPDTQDDFLKWWRSEEAR gave a growth estimate of -0.248.
In the case of PFPDTQDDFLKWWRSEEGQ, the growth estimate is reported as 0.109.
PFPDTQDDFLKWWRSEEKQ gave a growth estimate of under -0.25.
PFPDTQDDFLKWWRSEGAQ gave a growth estimate of -0.0427.
PFPDTQDDFLKWWRSEPAQ showed a growth estimate of -0.225.
Sequence PFPDTQDDFLKWWRSERAQ has a growth estimate of under -0.25.
PFPDTQDDFLKWWRSKEAQ gave a growth estimate of -0.183.
For PFPDTQDDFLKWWRSPEAQ, the growth estimate was -0.176.
Work on PFPDTQDDFLKWWRSREAQ yielded a growth estimate of under -0.25.
PFPDTQDDFLPWWRSEEAQ gave a growth estimate of -0.145.
With PFPDTQDDFLRWWRSEEAQ the growth estimate was -0.0276.
Sequence PFPDTQDDFRKWWRSEEAQ has a growth estimate of -0.247.
With PFPDTQDDKLKWWRSEEAQ the growth estimate was -0.245.
PFPDTQDDPLKWWRSEEAQ was tested, and the growth estimate was under -0.25.
PFPDTQDDRLKWWRSEEAQ showed a growth estimate of -0.109.
Sequence PFPDTQDGFLKWWRSEEAQ has a growth estimate of under -0.25.
PFPDTQDPFLKWWRSEEAQ gave a growth estimate of under -0.25.
PFPDTQDRFLKWWRSEEAQ gave a growth estimate of under -0.25.
PFPDTQGDFLKWWRSEEAQ gave a growth estimate of -0.248.
In the case of PFPDTQKDFLKWWRSEEAQ, the growth estimate is reported as under -0.25.
Sequence PFPDTQPDFLKWWRSEEAQ has a growth estimate of -0.22.
With PFPDTQRDFLKWWRSEEAQ the growth estimate was -0.245.
